In the nanobody polyreactivity screen of Harvey et al. (2022):

Test: yeast display, Sf9 membrane polyspecificity reagent, FACS + sequencing; frameworks hold sequencing errors
How it was run: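 After 36–48 hours of galactose induction, yeast (Saccharomyces cerevisiae BJ5465) displaying a synthetic nanobody library were stained at 4 °C for 1 hour with 10% biotinylated, detergent-solubilized Sf9 membrane reagent. Streptavidin microbeads enriched the stained cells before FACS sorting into low and high (top ~1%) gates on anti-HA and streptavidin fluorescence. Each clone's polyreactivity label reflects its gate of origin.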

Sequence | polyreactivity (PSR sort gate)
QVQLVESGGGLVQAGGSLRLSCAASGYTIYRYAMGWYRQAPGNERELVAAISSAGTTNYADSVKGRFTISRDNAKNTVYLQINSLKPEDTAVYYCNKRGRNHNSLKYGYWGQGTQVTVSS | high polyreactivity
QVHLVESGGGLVQAGGSLRLSCAASGSIFHRYAMGWYRQAPGKEREFVAAISRSGGSSNYADSVKGRFTISRDNAKNTVYLQMNSLKPEDTAVYYCAARTVTTGGSRYDYWAQGTQVTVSS | high polyreactivity
QVQLVESGGGLVQAGGSLRLSCAASGIIFRTYAMGWYRQAPGKERELVAAISGTTGSKYYADSVKGRFTISRDNAKNTVYLQMNSLKPEDTAVYYCAADFYWYIRYDYWGQGTQVTVSS | low polyreactivity
QVHLVESGGGLVQAGGSLRLSCAASGRIFAKNAMGWYRQAPGKERELVAAINHSGGSTYYADSVKGRFTISRDYAKNTVYLQMNSLNPEDTAVYYCDARGLTTRSPFYYWGQGTQVTVSS | high polyreactivity
QFQLVESGGGLVQAGGRLRLSCAASGYTFYSYAMGWSRQAPGKERELVASITRRVGGTYYADSVKGRFTISRDNAKKTVYLQMNSLKPEDTAVYYCAAGYYHKKSSTDIEKYWGQGTQLTVSS | low polyreactivity
QVQLVETGGGLVQAGGSLRLSCAASGFTFFYYDMGWYRQAPGKERELVADITTGGSTNYADSVKGRFTISRDNAKNTVYFQMNSLKTEDTAVYYCAAATTYPYGYYYWGQGTEVTVSS | high polyreactivity
QVQLVESGGGLVQAGGSLRLSCAASGSIFNLYAMGWYRQAPGKEREMVAAISYSTGSTYYADSVKGRFTISRDNAKNTVYLQMTSLKPEDTAVYYCNAQEGILGWVLYDYWGQGTQVTVSS | high polyreactivity
QVQLVESGGGLVQAGGSLRLSCAASGTTFSVNAMGWYRQAPGKERELVAAIDYSGGSTYYADSVKGRFTISRDNAKNTVYLQMNSLKPEDTAVYYCNADAYGTPEFTSYAVRYDYWGQGTQVTVSS | low polyreactivity
QVQLVESGGGLVQAGGSLRLSCAASGYTFWFYAMGWYRQAPGKEREFVATISRSGGSTYYADSVKGRFTISRDNAKNTVYLQMNSLKPEDTAVYYCNARGPRSHRYDYWGQGTQVTVSS | high polyreactivity
QLKLEESGGRLVQAGGSLRLSCASSGRTFTYYVMGCYRQAPGKERELVAAISDSGGSTYYADSVKGRFTISRDNAKNTVYLQMNSLKPEDTAVYYCATDSYWYRLREYNYWGQGTQVTVSS | high polyreactivity
QVKIVESGGGLVQAGGSLRLSCAASGGIFNWYAMGWYRPAPGKERELVAAITQSGGSTYYADSVKGRFTISRDNAKNTEYLQMNSLKPEDTAVYYCNKDQEKFWTAFNTIGRAREYDYWGQGTQVTVSS | low polyreactivity
QVQLVESGGGLVQAGGSLRLSCAASGRIFGRNAMGWYRQAPGKERELVASITSGGGTNYADSVKGRFTISRDNAKNTVYLQMNSLKPEDTAVYYCAAKRHLEGYSGSIGRYYYWGQGTQVTVSS | low polyreactivity
QVQLVESGGALVQAGGSLRLSCAASGFIICYYAMGSYRQAPGKDRELVAAITSGTSTSYADSVKGRFTISRDNAKNTVYLQMNSLKQEDTAVYYCGADVVRSNFYGTFLYDYDYWGQGTQVTVSS | low polyreactivity
QVQLVESGGGLVQAGGSLRLSCAASGSTFGVNAMGWYRQAPGKERELVAVITRSGGSTYYADSVKGRFTISRDNAKNTVYLQMNSLKPEDTAVYYCAKSGVVDWGQGTQVTVSS | low polyreactivity
QVQHVESGGGLVQAGGSLRLSCAASGFIFGVYDMGWYRQAPGKERELVAAIDCVGSTYYADSVKGRFTISRDNAKNTVYLQMNSLKPEDTAGYYCNAARSRLYYDKYYYWGQGTQVTVSS | low polyreactivity
QVQLVESGGGLVQAGGSLRISCAASGIIFYTYVMGWYRQAPGKEREFVAGISTSGGRTDYADSVKGRFTISRDNAKNTVYLQMNSLKPEDTAVYYCNADYWQWYSYWYDYWGQGTQVTVSS | high polyreactivity
QVQLVESGGGLVQAGGSLRLSCAASGRTFYNYAMVWYRQAPGKERELVAAIDWGSDSTYYADSVKGRFTISRDNAKNTVYLQMNSLKPEDTAVYYCAAYLVSVYSRTYDYWGQGTQVTVSS | low polyreactivity
QVQLVESGGCLVQAGASLRLSCAASGSISKSYAMGWYRQAPGKEREFVAAISWRGGSTYADSVKGRFTISRDNAKNTVYLQMNSLKPEDTAVYYCAATNYGTFWGGQSERYDYWGQGSQVTVSS | low polyreactivity
QVQLVESGGGLVQAGGSLRLSCAASGSTFIGNAMGWYRQAPGKERELVAAITRSGGSTFYADSVKGRFTISRDNAKNTVYLQMNSLKPEDTAVYYCAAKGNPYRVPGSSYPKVNYWGQGTQVTVSS | high polyreactivity
QVQLVESGGGLVQAGGSLRLSCAASGRIFFGYAMGWYRQAPGKEREFVAAINWIGGRTYYADSVKGRFTISRDNAKNTVYLQMNSLKPEDTAVYYCAKEVSPYWTFDYWGQGSQVTVSS | low polyreactivity
QVQIVESGGGLVQAGGSLRLSCAASGITFVPNAIGLYRQAPGKERELFDAITNGDSTNYADSVKGRFTISRDNAKNTVYLQMNSLKPEDTAVYYCAADSCAQRPNQGRVSLHYYWGQVTQVTVSS | low polyreactivity
QVQLVESGGGLVQAGGSLRLSCAASGRTFGYNTMGWYRQAPGKERELVATIRTNGVSTYYADSVKGRFTISRDNAKNTVYLQMNSLKPEDTAVYYCNAPRTRKQKTIYVNAPGNYWGQGTQVTVSS | low polyreactivity
